“Also recorded” adds a separate entry of the source.
Columns and labels:
[1] = test system: N-terminal CBM33 domain of CelS2; assay: Metal reactivation of EDTA treated N-terminal CBM33 domain of CelS2 (HPAEC, FIG. 31); assay type: biochemical, Streptomyces coelicolor A3(2); details: for reactivation of EDTA treated enzyme: 10 μM metal ion, 20 μM EDTA, 1.7 mM reduced glutathione, pH 6.6
Procedure: […]; Mg^2+, Fe^3+, Zn^2+, Co^2+, Ca^2+, Cu^2+). […].
To identify which is the preferred metal for CelS2, the activity of the N-terminal CBM33 domain of CelS2 was inhibited by EDTA and different metals were tested to reactivate the protein.

[2] = Chitin solubilization by CBP21: soluble oxidized products (MALDI-TOF MS, UHPLC); assay type: biochemical; details: 2.0 mg/mL beta-chitin, 1.0 mM ascorbic acid, 20 mM Tris pH 8.0, 37° C.
Procedure: Two microliter of a 9 mg/mL mixture of 2,5-dihydroxybenzoic acid (DHB) in 30% acetonitrile was applied to a MTP 384 target plate ground steel TF (Bruker Daltonics). One microliter sample was then mixed into the DHB droplet and dried under a stream of air. The samples were analyzed with an Ultraflex MALDI-TOF/TOF instrument (Bruker Daltonics GmbH, Bremen, Germany) with a Nitrogen 337 nm laser beam. The instrument was operated in positive acquisition mode and controlled by the FlexControl 3.3 software package. All spectra were obtained using the reflectron mode with an acceleration voltage of 25 kV, a reflector voltage of 26, and pulsed ion extraction of 40 ns in the positive ion mode. The acquisition range used was from m/z 0 to 7000. […] Post-source decay (PSD) spectra using the Bruker Daltonics LIFT system were recorded at 8 kV precursor ion acceleration voltage and fragment acceleration (LIFT voltage 19 kV). […]
UHPLC was run on an Agilent 1290 Infinity UHPLC system equipped with diode array detector, set up with a Waters Acquity UPLC BEH amide column (2.1×150 mm with a 2.1×30 mm pre column both having a column material particle size of 1.7 μm) using 5 μL sample injections. […] Eluted oligosaccharides were monitored by recording absorption at 205 nm. Chromatograms were recorded, integrated and analysed using the ChemStation rev. […]

[3] = Time course of filter paper cellulose degradation by […] with CelS2 (FIG. 25); assay type: biochemical; details: 10 mg/ml filter paper, 0.8 μg/ml CC, pH 5.5
Procedure: In reactions where no CelS2 was present, 40 μg/ml purified BSA was added in order to maintain an identical protein load. […] Data are mean+/−SD (N=3); error bars indicate SD.

[4] = 0.1 mg/mL beta-chitin, 0.5 μM ChiC, 1.0 mM ascorbic acid, pH 8.0
Procedure: CBP21-like and GH61 proteins contain two highly conserved histidines (H28 and H114 in CBP21), one of which is the N-terminal histidine of the secreted mature protein.
Isocratic HPLC was run on a Dionex Ultimate 3000 HPLC system set up with a 4.6×250 mm Amide-80 column (Tosoh Bioscience, Montgomeryville, Pa., USA) with an Amide-80 guard column. The mobile phase consisted of 70% acetonitrile: 30% MilliQ H2O and the flow rate was 0.7 ml/min. Eluted oligosaccharides were monitored by recording absorption at 190 nm. Chromatograms were recorded, integrated and analysed using the Chromeleon 6.8 chromatography software (Dionex). […] A standard solution containing 0.10 mM (GlcNAc)2 was analyzed at regular intervals during the sample series, and the resulting average values (displaying standard deviations of less than 3%) were used for calibration.
For the sake of experimental simplicity and throughput, the degradation of chitin in reactions with ChiC and CBP21 was quantitatively assessed by measuring concentration of the dominant product, (GlcNAc)2, only.
The reaction was incubated at 37° C. and sampled at regular time intervals. Chitin degradation was measured by determining the concentration of (GlcNAc)2 by HPLC.

[5] = CBP21 reaction speed and degree of substrate oxidation (UHPLC of oxidized chitooligosaccharides); assay type: biochemical
Procedure: FIGS. 16A and 16B show the speed and extent of oxidative cleavage by CBP21 activity. […] After five hours, approximately 4.9% of the total sugars (theoretical number based on chitin concentration) are oxidized*. […] The degree of oxidation was determined by rapid conversion of the treated chitin with a large dose of a chitinase cocktail followed by UHPLC detection of oxidized dimers (filled diamonds) and trimers (filled triangles), as described in the Materials and Methods section. The linear part of the reaction represents an oxidation rate of approximately 1 per minute**. Maximum levels are reached after 2-3 hours and represent a degree of oxidation of 7.6% of the total sugars (theoretical number based on chitin concentration)***. Data in both panels are mean+/−SD (N=3); error bars (not visible for every point) indicate SD.
*The end concentrations of oxidized trimer and tetramer are 53 and 55 μM, respectively, giving rise to a total of 108 μM GlcNAcA. The molar concentration of GlcNAc in the solution is 2217 μM. Thus the degree of oxidation is 108/2217; in other words 4.9% of the sugars are GlcNAcA. **The rates calculated for oxidized dimer and oxidized trimer are 0.68 and 0.60 μM/min. […] The molar concentration of GlcNAc in the solution is 2217 μM. Thus the degree of oxidation is 168/2217; in other words 7.6% of the sugars are GlcNAcA.
Fractions were dried under vaccum (SpeedyVac), and resuspended in 50 μL MilliQ water. Purity was verified by MALDI-TOF MS. Isolated GlcNAc3GlcNAcA or GlcNAc4GlcNAcA were each incubated for 2 hours at 37° C. with 7.0 μM of a pure recombinant family 19 chitinase (ChiG from Streptomyces coelicolor (Hoell et al., 2006, FEBS J. 273: 4889)) resulting in production of equimolar amounts of GlcNAc2 and GlcNAcGlcNAcA or GlcNAc2GlcNAcA, respectively. The amount of GlcNAc2 resulting from the hydrolysis was estimated using a predetermined standard curve. Response factors for the GlcNAcA containing oligosaccharides were obtained by determining GlcNAcGlcNAcA/GlcNAc2 and GlcNAc2GlcNAcA/GlcNAc2 peak area ratios and found to be 0.71 and 0.81, respectively. A response factor for GlcNAc3GlcNAcA was approximated to be 0.88 by extrapolation of the two experimentally determined response factors. Using the response factors determined, GlcNAcGlcNAcA and GlcNAc2GlcNAcA peaks could be quantified using GlcNAc2 for calibration. […] Additionally, the reactions contained 0.45 mg/mL beta-chitin, 1.0 μM CBP21 and 0.5 ChiC μM in 20 mM Tris-HCl pH 8.0.
The reactions were incubated at 37° C. in an Eppendorf Thermo mixer with shaking at 1000 rpm, and sampled at 30, 60, 120 and 300 minutes. All samples were mixed 1:1 with 100% acetonitrile in order to stop the reaction and soluble products were analyzed by UHPLC. Separation of the oxidized oligosaccharides and GlcNAc2 was achieved using a column temperature of 30° C. and a flow of 0.4 mL/min, with a gradient starting at 80% ACN (A):20% 15 mM Tris-HCl pH 8.0 (B) for 4.5 minutes, followed by an 11 minute gradient to 63% A: 37% B which was held for 3.5 minutes. Column reconditioning was achieved by a two minute gradient to initial conditions and subsequent running at initial conditions for 5 minutes. Eluted oligosaccharides were monitored by recording absorption at 205 nm. Chromatograms were recorded, integrated and analysed using the ChemStation rev. B.04.02 chromatography software (Agilent Technologies).
In order to approximate the rate of the CBP21 oxidohydrolytic activity, reactions containing 0.45 mg/mL beta-chitin, 1.0 μM CBP21 and 1.0 mM reduced glutathione in 20 mM Tris-HCl pH 8.0 were incubated at 37° C. and sampled at 10, 15, 30,45, 60 and 300 minutes. […]

[6] = Soluble products released from AVICEL by CBM33 proteins (MALDI-TOF MS, HPAEC); assay type: biochemical; details: with external electron donor (ascorbic acid or reduced glutathione)
Procedure: The main peaks are annotated with molecular weight and degree of polymerization (DP).
The DP of the oxidized cellooligosaccharides is indicated by n, where n=3 (the shortest labelled oxidized cellooligosaccharide has a DP of three (=n)). […] Peak annotation was performed by comparing the chromatogram with the chromatogram obtained for a chemically prepared mixture of oxidized cellooligosaccharides with lengths varying from DP1 to DP10.
The main peaks are annotated with molecular weight and degree of polymerization (DP). All annotated peaks are Na adducts of native cellooligosaccharides, oxidized cellooligosaccharides (denoted “ox”) or the sodium salts of oxidized cellooligosaccharides.
Products were analyzed after 20 hours of incubation in 20 mM ammonium acetate buffer pH 5.0, 1 mM MgCl2 at 50° C. and 900 rpm (vertical agitation).
Separation of native and oxidized cellooligosaccharides was achieved using a Dionex Bio-LC equipped with a CarboPack PA1, a column temperature of 30° C. and a flow of 0.25 ml/min, with starting conditions, i.e., 0.1 M NaOH. A stepwise linear gradient with increasing amounts of sodium acetate was applied, going from 0.1 M NaOH and 0.1 M sodium acetate in 10 minutes, then to 0.1 M NaOH and 0.3 M sodium acetate for 25 minutes then increasing to 0.1 M NaOH and 1.0 M sodium acetate at 30 minutes which was kept for 10 minutes. Column reconditioning was achieved by a one minute gradient to initial conditions and subsequent running at initial conditions for 14 minutes. Eluted oligosaccharides were monitored by PAD detection. Chromatograms were recorded and analysed using Chromeleon 7.0 Peak identification was achieved by a procedure including the following steps: oxidized cellooligosaccharides were separated using a Dionex Ultimate 3000 UHPLC system carrying a Hypercarb 150×2.1 mm column (Thermo Scientific) running a gradient of water/0.1% TFA and acetonitrile/0.1% TFA (from 20 to 80% acetonitrile) according to the method developed by Westphal et al., 2010, Journal of Chromatography A 1217: 689-695. Eluted peaks were manually fractioned, freeze-dried, re-dissolved in MilliQ water and identified using MALDI-TOF MS. Pure oxidized cellooligosaccharides with known identity were then analyzed using the HPEAC method described above in order to establish the identity of the oxidized cellooligosaccharides generated by CelS2 and E7.

[7] = Cellulase boosting properties of CelS2 at various pHs with monocomponent Cel7A; assay type: biochemical; details: Cel7A
Source text: When probing the cellulose boosting properties of CelS2 at various pHs using monocomponent Cel7A as the cellulose hydrolytic component, pH 5.5 came out as the optimal pH for activity. […] The most obvious reason for the decrease in cellulose hydrolysis at increasing pH is the pH stability and efficiency of Cel7A. […] CelS2 is a bacterial enzyme that originates from Streptomyces species that are known to grow optimally on cellulosic substrates in approximately neutral pH conditions (Kontro et al., 2005, Letters in Applied Microbiology 41: 32-38.).

[8] = Filter paper cellulose degradation by […] with E7 (FIG. 28); assay type: biochemical
Procedure: 1 μM of the N-terminal CBM33 domain of CelS2 was incubated with 10 mg/ml AVICEL® in the presence of 0.8 mM of one of the reductants, or in the absence of any reductant. Reactions were run in 50 mM succinate buffer pH 5.5, 1 mM MgCl2, at 50° C. and 900 rpm (vertical agitation) for 20 hours. […] (glucose and cellobiose reported as [Glc]) released after incubation of 0.08 μl/ml […]™ (CC) in the presence or absence of 1 μM E7 and 2 mM reduced glutathione (RG) as external electron donor with 2 mg/ml filter paper cellulose. Reactions were incubated in 20 mM sodium acetate buffer pH 5.5, 1 mM MgCl2, at 50° C. and 900 rpm (horizontal agitation) for up to 50 hours.

[9] = Filter paper degradation by […] with CelS2 or E7 (FIG. 20), sugars by HPLC; assay type: biochemical
Procedure: Reactions were run in 50 mM Bis-tris/HCl pH 6.5, 1 mM MgCl2, at 50° C. and 900 rpm (horizontal agitation). Control reactions containing the cellulosic substrate suspended in the same buffer as used for the enzyme assays gave no detectable signal for either glucose or cellobiose.
The mobile phase consisted of 5 mM sulfuric acid and the flow rate used was 1.0 ml/min. Eluted glucose and cellobiose were monitored by recording refractive index. Quantification was obtained by running glucose and cellobiose standards.
Assays performed to evaluate the function of E7 and CelS2 were set up using a variety of cellulosic substrates (AVICEL®, filter paper and steam exploded wood chips from poplar), at either pH 5.5 (20 mM sodium acetate buffer), 6.5 (20 mM Bis-Tris buffer) or 8.0 (20 mM Tris buffer) in reaction mixtures containing 1.0 mM MgCl2.

[10] = 1.0 μM CBP21 alone, 0.45 mg/mL beta-chitin

Q: Which “reactivation of EDTA treated enzyme” value [1] does the source give for `[Cu+2]` [Cu^2+] here?
A: reactivated the enzyme

Q: What about the “reactivation of EDTA treated enzyme” value ([1]; listed as copper) of the same molecule?
A: able to reactivate CelS2

Q: What about the “effect on CBM33 action at higher metal concentration” value ([1]; concentrations in the 1 mM range, not shown) of the same molecule?
A: inhibits CBM33 action

B1: CBP21: chitin-binding protein of Serratia marcescens, single-domain CBM33 protein (SEQ ID NO: 4) (protein, listed as Serratia marescens)
chain: MNKTSRTLLSLGLLSAAMFGVSQQANAHGYVESPASRAYQCKLQLNTQCGSVQYEPQSVEGLKGFPQAGPADGHIASADKSTFFELDQQTPTRWNKLNLKTGPNSFTWKLTARHSTTSWRYFITKPNWDASQPLTRASFDLTPFCQFNDGGAIPAAQVTHQCNIPADRSGSHVILAVWDIADTANAFYQAIDVNLSK
Q: For B1, which “production of soluble oxidized oligosaccharides from beta-chitin” value [2] is on record?
A: soluble products are dominated by even numbered short oligosaccharides with acidic reducing ends

Q: And the “effect on CELLUCLAST (CC) production of soluble glucose over time” value [3]?
A: did not affect CC efficiency

Q: And the “potentiating effect on chitinase (ChiC) efficiency” value [4]?
A: promotes chitin degradation by ChiC considerably better in the presence of ascorbic acid

Q: And the “rate calculated for oxidized dimer” value [5, 10]?
A: 0.68 µM/min

Q: What about the “rate calculated for oxidized trimer” value [5, 10] of the same molecule?
A: 0.60 µM/min

Q: And the “rate of oxidized products generated (dimer + trimer)” value [5, 10]?
A: 1.28 µM/min

Q: And the “end concentration of oxidized tetramer” value ([5]; CBP21 + ChiC, five hours)?
A: 55 µM

Q: What about the “end concentration of oxidized trimer” value ([5]; CBP21 + ChiC, five hours) of the same molecule?
A: 53 µM

Q: And the “total GlcNAcA” value ([5]; CBP21 + ChiC, five hours)?
A: 108 µM

Q: And the “oxidized dimer produced at maximum levels” value ([5]; CBP21 alone)?
A: 93 µM

Q: And the “oxidized trimer produced at maximum levels” value ([5]; CBP21 alone)?
A: 75 µM

Q: And the “time at which maximum levels of oxidized sugars are reached” value ([5]; CBP21 alone)?
A: 2 to 3 h

Q: What about the “total GlcNAcA at maximum levels” value ([5]; CBP21 alone) of the same molecule?
A: 168 µM

B2: CBM33 domain: recombinantly produced N-terminal CBM33 domain of CelS2 (SEQ ID NO: 22) (protein)
chain: HGVAMMPGSRTYLCQLDAKTGTGALDPTNPACQAALDQSGATALYNWFAVLDSNAGGRGAGYVPDGTLCSAGDRSPYDFSAYNAARSDWPRTHLTSGATIPVEYSNWAAHPGDFRVYLTKPGWSPTSELGWDDLELIQTVTNPPQQGSPGTDGGHYYWDLALPSGRSGDALIFMQWVRSDSQENFFSCSDVVFDGG
modifications: Streptomyces coelicolor
Q: Which “release of soluble native/oxidized cellooligosaccharides from AVICEL” value [6] does the source give for B2 here?
A: shows activity on AVICEL® without its CBM2, although lower than the activity of the whole protein

B3: CBP21^H114A: H114A mutant variant of CBP21 (protein, UniProt P9WEM3 28-197, looked up, variant H114A)
AA10 family lytic …: HGYVESPASRAYQCKLQLNTQCGSVQYEPQSVEGLKGFPQAGPADGHIASADKSTFFELDQQTPTRWNKLNLKTGPNSFTWKLTARASTTSWRYFITKPNWDASQPLTRASFDLTPFCQFNDGGAIPAAQVTHQCNIPADRSGSHVILAVWDIADTANAFYQAIDVNLSK
Q: With B3 as the molecule, how does the “production of soluble oxidized oligosaccharides from beta-chitin” value [2] read?
A: did not lead to production of soluble oxidized oligosaccharides

Q: What about the “potentiating effect on chitinase (ChiC) efficiency” value [4] of the same molecule?
A: unable to boost chitinase activity

B4: Cel7A: family GH7 cellulase from Hypocrea jecorina purified from CELLUCLAST (protein, UniProt P62694 18-513, looked up)
Exoglucanase 1: QSACTLQSETHPPLTWQKCSSGGTCTQQTGSVVIDANWRWTHATNSSTNCYDGNTWSSTLCPDNETCAKNCCLDGAAYASTYGVTTSGNSLSIGFVTQSAQKNVGARLYLMASDTTYQEFTLLGNEFSFDVDVSQLPCGLNGALYFVSMDADGGVSKYPTNTAGAKYGTGYCDSQCPRDLKFINGQANVEGWEPSSNNANTGIGGHGSCCSEMDIWEANSISEALTPHPCTTVGQEICEGDGCGGTYSDNRYGGTCDPDGCDWNPYRLGNTSFYGPGSSFTLDTTKKLTVVTQFETSGAINRYYVQNGVTFQQPNAELGSYSGNELNDDYCTAEEAEFGGSSFSDKGGLTQFKKATSGGMVLVMSLWDDYYANMLWLDSTYPTNETSSTPGAVRGSCSTSSGVPAQVESQSPNAKVTFSNIKFGPIGSTGNPSGGNPPGGNRGTTTTRRPATTTGSSPGPTQSHYGQCGGIGYSGPTVCASGTTCQVLNPYYSQCL
Q: For B4, which “cellulase activity at pH 8.0” value [7] is on record?
A: close to inactive

B5: E7: single domain CBM33 from Thermobifida fusca (SEQ ID NO: 6) (protein, listed as Thermobifida fusca)
chain: MHRYSRTGKHRWTVRALAVLFTALLGLTQWTAPASAHGSVINPATRNYGCWLRWGHDHLNPNMQYEDPMCWQAWQDNPNAMWNWNGLYRDWVGGNHRAALPDGQLCSGGLTEGGRYRSMDAVGPWKTTDVNNTFTIHLYDQASHGADYFLVYVTKQGFDPTTQPLTWDSLELVHQTGSYPPAQNIQFTVHAPNRSGRHVVFTIWKASHMDQTYYLCSDVNFV
Q: With B5 as the molecule, how does the “effect on CELLUCLAST activity” value ([8]; 1 μM E7, 0.08 μl/ml CC, 2 mg/ml filter paper, pH 5.5) read?
A: acts in synergy with CELLUCLAST™; also recorded: prolongs cellulase activity over time

Q: And the “Glc or Glc2 released without cellulases” value ([8]; E7 in absence of cellulases)?
A: did not yield detectable amounts of Glc or Glc2

Q: What about the “increase of glucose yield versus CELLUCLAST only” value (“increase” below) ([9]; no external electron donor, 24 hours) of the same molecule?
A: ~3.0 fold

Q: What about the “increase” value ([9]; no external electron donor, 120 hours) of the same molecule?
A: ~3.5 fold

Q: What about the “increase” value ([9]; with external electron donor (1 mM reduced glutathione), 24 hours) of the same molecule?
A: 3.5 fold

Q: What about the “increase” value ([9]; with external electron donor (1 mM reduced glutathione), 120 hours) of the same molecule?
A: ~4.5 fold

Q: And the “release of soluble native/oxidized cellooligosaccharides from AVICEL” value [6]?
A: soluble oligomeric products were observed
